Positions of bridges follow the written chain, without caps; N, C: chain ends. Non-standard residues stand in square brackets, D forms with d. Groups on a side chain read outwards from the residue. *: point of attachment. PEG12 = NCCOCCOCCOCCOCCOCCOCCOCCOCCOCCOCCOCCOCCC(=O)O; Dip = N[C@H](C(=O)O)C(c1ccccc1)c1ccccc1; Palmitoyl = CCCCCCCCCCCCCCCC(=O)*; Isovaleryl = CC(C)CC(=O)*

This experiment deals with T1, human ferroportin (SLC40A1) fused in frame with GFP, stably expressed in HEK293 cells (human, UniProt Q9NP59 1-571).
T1 sequence (looked up): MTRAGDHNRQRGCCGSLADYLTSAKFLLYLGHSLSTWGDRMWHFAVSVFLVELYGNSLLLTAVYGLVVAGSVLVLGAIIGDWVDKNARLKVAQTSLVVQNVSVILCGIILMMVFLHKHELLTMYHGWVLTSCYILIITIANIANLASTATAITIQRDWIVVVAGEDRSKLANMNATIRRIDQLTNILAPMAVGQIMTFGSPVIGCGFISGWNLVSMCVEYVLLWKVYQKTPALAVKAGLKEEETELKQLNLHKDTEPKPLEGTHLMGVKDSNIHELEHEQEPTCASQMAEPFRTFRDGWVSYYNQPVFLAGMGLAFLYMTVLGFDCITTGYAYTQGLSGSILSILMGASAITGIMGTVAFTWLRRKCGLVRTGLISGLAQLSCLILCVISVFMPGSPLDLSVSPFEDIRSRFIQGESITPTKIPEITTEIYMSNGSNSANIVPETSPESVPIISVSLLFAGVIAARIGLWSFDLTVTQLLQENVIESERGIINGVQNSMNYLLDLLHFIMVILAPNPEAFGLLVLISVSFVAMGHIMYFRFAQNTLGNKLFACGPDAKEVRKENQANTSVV
Briefly: cell-based or functional assay.

B1: Compd ID 130 (peptide)
peptide: Isovaleryl-DIH[Dip]PCI[dK]FK([PEG12-Palmitoyl])[dK]C-NH2
modifications: disulfide 6-12 (inferred)
As for B1, the “FPN IC50” value was determined as 69 nM.
